Data from US20090053740A1, “AGGLUTINATION-BASED METHOD FOR FAST DETECTION, ISOLATION AND QUANTIFICATION OF APOPTOTIC CELLS” (CEDARS-SINAI MEDICAL CENTER, priority 2005, published 2009).
Like-named read-outs stand apart in the source and are kept apart here.

What was measured:
[1] = system: apoptotic cells; experiment: Effect of glycoprotein synthesis/traffic inhibitors on glycoprotein expression in apoptotic cells; type: cell-based
[2] = system: L1210 cells; type: binding, murine
[3] = system: murine leukemia L1210 cells; experiment: Effect of cisplatin concentration on quantity of live cells
Procedure: Apoptosis of L1210 cells was induced by cisplatin (0.5 and 0.1 μg/ml, or 5.0 μg/ml, Ebewe, Austria) (56,57); apoptosis of L929 cells was induced by hyperthermia 43° C. […] Cell viability was controlled by trypan-blue (0.1% w/v solution) exclusion test, and cells were counted in hemocytometric chamber under light microscope.

[4] = system: human leukemia Jurkat cells; experiment: Lectinocytochemical analysis with HRP-labeled lectins; type: binding
Procedure: (§1) Lectin cytochemical analysis was conducted as described previously by Herrington & Mc Gee (Herrington C S, McGee JO'D. Diagnostic molecular pathology. Oxford: IRL Press; 1992), with some modifications. Cell smears were fixed in a mixture of acetone, methanol, and formalin (19:19:2) for 90 s at room temperature and then air dried. Smears were washed twice with Tris saline buffer (TSB) for 2 min and incubated with HRP-labeled lectins (50 μg/ml) for 1 h at room temperature or overnight at 4° C. If necessary, the appropriate sugar inhibitor (0.1 M solution) was added to the incubation mixture. Smears were washed twice with TSB for 10 min and incubated with 0.5 mg/ml of 3,3′-diaminobenzidin (Sigma Chemical Co.) and 4 μl/ml of H2O2 in TSB for 5 min. In some experiments a NiCl2 solution was added to the incubation mixture (final concentration, 1 mg/ml) to improve cell contrast.
(§2) Alternatively, smears were washed in distilled water, air dried and photographed. Densitometric analysis was performed on an AMD-based IBM PC computer using ImageJ (Wayne Rasband, National Institutes of Health, USA) program support and the UTHSCSA ImageTool program (University of Texas Health Science Center in San Antonio, Tex.).

[5] = system: human adenocarcinoma cells of MCF-7 line; experiment: as above; type: binding
Procedure: as §1, §2

[6] = system: L929, L1210, MCF-7 (wt), MCF-7 (DOX/R), and Jurkat cell lines; experiment: Lectinocytochemical analysis, summary over the studied cell lines; type: binding
[7] = system: murine leukemia L1210 cells; type: cell-based
Procedure: Mixtures were resuspended once and 10 μl were transferred on slide glass, and examined under microscope.
Mannose-specific PMRL and PSL lectins caused agglutination of normal cells in concentrations of 625 and 1000 μg/ml, respectively and agglutination of apoptotic cells in concentrations of 78 and 125 μg/ml, respectively (FIG. 11). Thus, lectin concentration needed for agglutination of apoptotic cells was approximately equal to and/or equal to ⅛ (625 against 78 and 1000 against 125) of that needed to agglutinate the non-apoptotic cells. It is believed that there is an 8-fold increase in mannose-containing glycoconjugate expression in the apoptotic cells comparing to intact cells. Similar results were obtained for galactose-specific lectins.

[8] = system: murine fibroblasts of L929 line; experiment: Lectinocytochemical analysis with HRP-labeled lectins; type: binding
[9] = system: human lung carcinoma A549 cells; experiment: Fluorescent microscopy with fluorescent lectin conjugate; type: binding

O=CC[C@@H](O)[C@H](O)[C@H](O)CO [2-deoxy-D-glucose]
effect on the increase in expression of α-D-mannose- and β-D-galactose-containing glycoprotein(s) in apoptotic cells [1]: did not diminish

CC[C@@]1([C@@H]2O[C@@H]([C@H]3O[C@@](O)(CO)[C@H](C)C[C@@H]3C)C[C@@H]2C)CC[C@H]([C@]2(C)CC[C@]3(C[C@H](O)[C@@H](C)[C@@H]([C@@H](C)[C@@H](OC)[C@H](C)C(=O)O)O3)O2)O1 [monensine]
effect on the increase in expression of α-D-mannose- and β-D-galactose-containing glycoprotein(s) in apoptotic cells [1]: did not diminish

tunicamycin
effect on the increase in expression of α-D-mannose- and β-D-galactose-containing glycoprotein(s) in apoptotic cells [1]: did not diminish

CO[C@H]1O[C@H](CO)[C@@H](O)[C@H](O)[C@@H]1O [α-MMan, α-Methyl-D-mannopyranoside, reference compound]
inhibition of lectin binding by specific sugar inhibitor [2]: almost absolute abolishment

N.N.[Cl][Pt][Cl] [cisplatin, cis-diamminodichloroplatinum]
effect of increasing concentration on live cell number [3]: decrease in live cell number

OC[C@H]1O[C@H](O[C@H]2[C@H](O)[C@@H](O)C(O)O[C@@H]2CO)[C@H](O)[C@@H](O)[C@H]1O (stereo partly drawn) [lactose, 4-O-(α-D-galactopyranosyl)-D-glucopyranose, reference compound]
inhibition of lectin binding by specific sugar inhibitor ([2]; α-MMan for PSL, lactose for RCA-120): substantial

B1: PSL: Pisum sativum lectin, α-D-mannose-specific (protein, UniProt P02867 31-217; P02867 218-275, looked up)
Lectin beta chain: TETTSFLITKFSPDQQNLIFQGDGYTTKEKLTLTKAVKNTVGRALYSSPIHIWDRETGNVANFVTSFTFVINAPNSYNVADGFTFFIAPVDTKPQTGGGYLGVFNSAEYDKTTQTVAVEFDTFYNAAWDPSNRDRHIGIDVNSIKSVNTKSWKLQNGEEANVVIAFNAATNVLTVSLTYPNSLEEEN
Lectin alpha chain: VTSYTLSDVVSLKDVVPEWVRIGFSATTGAEYAAHEVLSWSFHSELSGTSSSKQAADA
lectin binding, apoptotic vs non-apoptotic cells [4]: stronger
lectin binding, apoptotic vs non-apoptotic cells [5]: increase in binding
lectin binding, apoptotic vs normal cells [5]: statistically insignificant
binding by apoptotic cells compared with normal cells [2]: much better bound
lectin binding of cells pretreated 2 h with non-labeled lectin vs untreated, stained with corresponding HRP-labeled lectin [2]: decrease
lectin binding with apoptotic cells compared to non-apoptotic cells [6]: increased bidding
lectin concentration needed for agglutination of apoptotic cells as fraction of that needed for non-apoptotic cells ([7]; L1210 cells): ⅛
minimal lectin concentration needed to induce noticeable agglutination ([7]; apoptotic L1210 cells): 125 µg/mL
minimal lectin concentration needed to induce noticeable agglutination ([7]; normal L1210 cells): 1000 µg/mL
lectin binding, apoptotic vs normal cells ([8]; L929): significantly stronger binding
staining, apoptotic vs non-apoptotic cells ([8]; L929, etoposide 10 μM, 72 h): more intensive staining
lectin binding, apoptotic vs non-apoptotic cells ([8]; L929, hyperthermia 43° C., 3h, detached by rubbing): increased binding
lectin binding, apoptotic vs intact cells ([8]; L929, hyperthermia, trypsinization): significantly stronger

B2: FITC-PSL: FITC-labeled PSL lectin conjugate (conjugate, UniProt P02867 31-217; P02867 218-275, looked up)
Lectin beta chain: TETTSFLITKFSPDQQNLIFQGDGYTTKEKLTLTKAVKNTVGRALYSSPIHIWDRETGNVANFVTSFTFVINAPNSYNVADGFTFFIAPVDTKPQTGGGYLGVFNSAEYDKTTQTVAVEFDTFYNAAWDPSNRDRHIGIDVNSIKSVNTKSWKLQNGEEANVVIAFNAATNVLTVSLTYPNSLEEEN
Lectin alpha chain: VTSYTLSDVVSLKDVVPEWVRIGFSATTGAEYAAHEVLSWSFHSELSGTSSSKQAADA
modifications: FITC label
notes: FITC-labeled PSL lectin conjugate
binding of labeled lectin compared to untreated cells or cells with onset of apoptosis ([9]; A549, 5 μg/ml cisplatin 24 hours, apoptosis in almost all cells (FIG. 18 lower row)): significantly higher
binding of labeled lectin compared to untreated cells ([9]; A549, 5 μg/ml cisplatin 24 hours, beginning of apoptotic cell death (FIG. 18 middle row)): significantly stronger
binding of labeled lectin ([9]; untreated A549 cells): did not bind
